Test [1] has as its target recombinant 6xHis tagged human CLDN18.2 (human). Put plainly: SPR (Biacore T200), His tagged CLDN18.2 amine-coupled on CM5, antibody as analyte, 1:1 fit. A general note: SPR reads the build-up and loss of mass on a sensor chip optically.
The target of test [2] is human CLDN18.2 as used in the Octet assay (human). Put plainly: Octet (BLI); format not described. For orientation: In BLI a coated tip is dipped into the sample, and binding shifts an interference pattern.
Test [3] has as its target recombinant 6xHis tagged human CLDN18.2 (human). The test is described as follows: SPR (Biacore); same values as Table 30.

Data on one substance can be found in patent US20240270839A1.

In general, Kd refers to the free concentration of one partner at which half of the binding sites on the other are occupied at equilibrium, for simple one-to-one binding. On to IMAB362 (Zolbetuximab) (antibody), for which the values for the equilibrium dissociation constant (Kd) in test [1], in test [2] and in test [3] were 115 nM, 1.6 nM and 115 nM, respectively.
